Source: publication PMC7036363, “Analysis of HrpG regulons and HrpG‐interacting proteins by ChIP‐seq and affinity proteomics in Xanthomonas campestris”

Tests used:
[1] = biological target: recombinant HUXcc-His6 (Xanthomonas campestris pv. campestris); assay: MST; HUXcc labelled with NT-647 (RED-NHS kit), purified HrpG titrated from 0.001 to 17 μM in a 1:1 series dilution; 1 x MST buffer (50 mM Tris, 150 mM NaCl, 10 mM MgCl2, pH 6) with 0.05% Tween; Monolith NT.115, standard treated capillaries; KD-Fit function
[2] = biological target: HrpG (Xanthomonas campestris pv. campestris 8004) (UniProt Q8PBF6); assay: MST; conditions: MST: 50 mM Tris-HCl pH 7.4, 150 mM NaCl, 10 mM MgCl2, 0.05% Tween-20; EMSA: 10 mM Tris-HCl pH 7.5, 50 mM KCl, 1 mM DTT, 50 ng poly(dI:dC), 0-40 uM protein …
[3] = biological target: HrpG (Xanthomonas campestris pv. campestris …, UniProt Q8PBF6 1-262); assay: MST; 10 mM MgCl2; MST: 50 mM Tris-HCl pH 7.4, 150 mM NaCl, 10 mM MgCl2, 0.05% Tween-20; EMSA: 10 mM Tris-HCl pH 7.5, 50 mM KCl, 1 mM DTT, 50 ng poly(dI:dC), 0-40 uM protein, 28 C 30 min; conditions: protein: recombinant; text writes HrpG-His6; chain copies: 2; label: 5'-FAM; blunt

For “HrpG-His6 recombinant protein (natural protein)”, the Kd [1] was 640 nM.

Molecule hrpEp MST fragment has a Kd [2] of 2300 nM.

With hpa2p MST fragment the Kd [2] was 2220 nM.

Work on hrcUp MST fragment yielded a Kd [2] of 1790 nM.

B1: Motif-1 (HrpG consensus motif probe) (dsDNA)
DNA 1: CTTCGAAGTGAGAAATTCTATTGGATCCGC
DNA 2: GCGGATCCAATAGAATTTCTCACTTCGAAG
Work on B1 yielded a Kd [3] of 6960 ± 1440 nM.

B2: Motif-2 (mutated HrpG motif probe) (dsDNA)
DNA 1: CTTCGAAGTGAGAACGGAATCCGGATCCGC
DNA 2: GCGGATCCGGATTCCGTTCTCACTTCGAAG
B2: no binding [3].
